Target: HB-EGF receptor for diptheria toxin/CRM197 (heparin-binding epidermal growth factor-like precursor) on OV90 ovarian cancer cells (UniProt Q99075)
Test: cell-based or functional assay

UniProt Q99075, sequence (Q99075 63-148 limits assumed): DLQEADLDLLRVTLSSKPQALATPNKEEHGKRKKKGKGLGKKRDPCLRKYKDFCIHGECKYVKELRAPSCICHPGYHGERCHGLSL

In the case of “CRM197-Alexa488 (from UniProt P00587 26-560)”, the labelling of OV90 tumor cells with CRM197-Alexa488 after 24 hours (flow cytometry, 10 µg/mL, without trypan blue) is reported as 98.2%, the percentage of CRM197-Alexa488 uptake by OV90 tumor cells after 4 hours (flow cytometry, 10 µg/mL, without trypan blue) is reported as 82% and the percentage of OV90 cells with intracellular CRM197-Alexa488 after 4 hours (flow cytometry, with trypan blue quenching) is reported as 72.7%. It also gave a percentage of OV90 cells with intracellular CRM197-Alexa488 after 24 hours (flow cytometry, with trypan blue quenching) of 97.6%.

Source: US20220023406A1
